One block for each molecule: values may come before it.
Experiments:
[1] = binding with fructose at pH=8; 480 nm to 450 nm; cited from earlier work
[2] = Non-specific binding and BSA blocking: FITC-BSA and FITC-Ovalbumin on PBL library, bead fluorescence; conditions: for Mean of luminosity of fluorescent beads: exposure time 832 ms; for Binding to PBL library by bead fluorescence (non-specific vs specific): exposure time 62.4 ms
Description: On the other hand, we used the PBL library to bind FITC labeled bovine serum album (BSA) to observe non-specific binding. There should not be binding between them because there are no carbohydrates on BSA. The experimental results were compared in FIG. 2.14. […] That means the amount of non-specific binding is less than specific binding. In order to see whether the blocking PBL library with BSA is useful to prevent the non-specific binding, we compared the binding samples with and without blocking with BSA. Two fluorescently labeled proteins were used: FITC-BSA and FITC-Ovalbumin. In FIG. 2.14, it is not easy to differentiate the images 2 and 3 under 62.4 ms exposure time. We increased the exposure time to 832 ms and compared quantitatively the luminosity of fluorescent beads (with red circles). The mean of luminosity for image 2 is 63.57 and 38.84 for image 3; while for image 4 and 5, they are 38.63 and 19.86 respectively. […] In one experiment (Table 2.2, row 1 and 4), we counted the rate of hits which decreased when the PBLs were blocked with BSA.

[3] = Binding of control proteins to the PBL library; conditions: fluorescently labeled protein
Procedure: To minimize non-specific binding, the resin was pre-incubated with 1% BSA. When binding glycoproteins to the library (about 10 min. to 12 hr—about 1 ng/mL to 1 mg/mL), 1% BSA and 10% glycerol were also included. The resin was washed extensively with phosphate buffered saline (PBS) after binding.

[4] = PBL library response to FITC-tagged CEA at varying concentrations; type: binding
Description: Higher sensitivity is achieved using longer integration times on the camera to image the beads, up to 25 ms to obtain the 10 pg/mL image.

[5] = Detection limit of fluorescently-labeled glycoproteins bound to PBL library beads (fluorescence microscopy); type: binding
Procedure: To determine how low the concentration is at which we can still differentiate the fluorescence of the beads, the PBL library beads were blocked with 1% BSA and then incubated with varying concentration of FITC-labeled ovalbumin, PSM and CEA and CR-labeled ovalbumin and PSM with the addition of 10% (v/v) glycerol overnight. After washing away unbound glycoproteins, fluorescence images were obtained. The PBL library without addition of glycoprotein was used as a control sample. Here, the limit of glycoprotein detection is defined as the lowest concentration of fluorescently-labeled glycoproteins at which their binding to PBL library beads can give enough fluorescence intensity for visual observation. However, the concentration limits are also exposure time dependent, e.g., for FITC-Ovalbumin, and FITC-BSM, the lowest concentrations for visual observation of fluorescence under exposure time 252 ms are about 10 μg/ml, but if the exposure time was increased, the fluorescence can be observed even under dilute concentration. For instance, for FITC-Ovalbumin, the detection limit will lower to about 0.1 μg/ml when exposure time is increased to 4.69 s (FIGS. 2.15, 2.16 and Table 2.3). For FITC-CEA, if observed under 252 ms, the fluorescence of beads is strong. Its concentration limit is about 0.1 (μg/ml) under this exposure time (FIG. 2.17). Stronger fluorescence from FITC-CEA if under the same exposure time as others may be due to CEA having more terminal glycans compared to others.
For CR-glycoproteins, since the PBL library itself is lightly fluorescent under excitation wavelength=510-560 nm, in order to avoid high background interference, we chose comparatively lower exposure time (62.4 ms) when we took the images (FIGS. 2.18 and 2.19). Under this exposure time, the concentration limits for CR-Ovalbumin and CR-PSM were 1 μg/ml (Table 2.3). If we mention the concentration limit of screening, we mention exposure time because the concentration limit is exposure dependent.
FITC-glycoprotein or CR-glycoprotein solution was added into the borono-peptide beads and tumbled overnight at room temperature. The beads were then washed by PBS buffer (0.1M, pH=7.3 150 mM NaCl) (for CR-glycoproteins, beads were washed with methanol first and then washed with PBS buffer) and beads were observed under fluorescence microscope (Nikon, eclipse, E600) and pictures were taken.

[6] = PBL library blocked with BSA (images 3 and 5)
[7] = without BSA blocking (images 2 and 4)

Molecule: CN(C)c1ccc(/C=C/c2ccc(B(O)O)cc2)cc1 [DSTBA, 4′-Dimethylaminostilbene-4-boronic acid]
Blue shift of the emission [1]: 30 nm

Mean of luminosity of fluorescent beads [2, 6]: 38.84 | Binding to PBL library by bead fluorescence (non-specific vs specific) [2]: non-specific binding is minimal | Mean of luminosity of fluorescent beads [2, 7]: 63.57 | Binding to the PBL library (qualitative) [3]: no appreciable binding
Molecule: FITC-BSA: FITC labeled bovine serum albumin, not a glycoprotein [reference compound]

B1: FITC-CEA: Carcinoembryonic antigen labeled with FITC (conjugate, UniProt P06731 35-685, looked up)
Cell adhesion molecule CEACAM5: KLTIESTPFNVAEGKEVLLLVHNLPQHLFGYSWYKGERVDGNRQIIGYVIGTQQATPGPAYSGREIIYPNASLLIQNIIQNDTGFYTLHVIKSDLVNEEATGQFRVYPELPKPSISSNNSKPVEDKDAVAFTCEPETQDATYLWWVNNQSLPVSPRLQLSNGNRTLTLFNVTRNDTASYKCETQNPVSARRSDSVILNVLYGPDAPTISPLNTSYRSGENLNLSCHAASNPPAQYSWFVNGTFQQSTQELFIPNITVNNSGSYTCQAHNSDTGLNRTTVTTITVYAEPPKPFITSNNSNPVEDEDAVALTCEPEIQNTTYLWWVNNQSLPVSPRLQLSNDNRTLTLLSVTRNDVGPYECGIQNELSVDHSDPVILNVLYGPDDPTISPSYTYYRPGVNLSLSCHAASNPPAQYSWLIDGNIQQHTQELFISNITEKNSGLYTCQANNSASGHSRTTVKTITVSAELPKPSISSNNSKPVEDKDAVAFTCEPEAQNTTYLWWVNGQSLPVSPRLQLSNGNRTLTLFNVTRNDARAYVCGIQNSVSANRSDPVTLDVLYGPDTPIISPPDSSYLSGANLNLSCHSASNPSPQYSWRINGIPQQHTQVLFIAKITPNNNGTYACFVSNLATGRNNSIVKSITVSASGTSPGLSA
modifications: FITC label
PBL library response (microscope image) ([4]; 10 pg/mL CEA, integration times up to 25 ms): responding | PBL library response (microscope image) ([4]; 10 ng/mL CEA): responding

Mean of luminosity of fluorescent beads [2, 6]: 19.86 | Binding to PBL library by bead fluorescence (non-specific vs specific) [2]: fluorescence can be observed clearly | Mean of luminosity of fluorescent beads [2, 7]: 38.63
B2: FITC-Oval: conjugate of fluorescein isothiocyanate and chicken ovalbumin (conjugate, UniProt P01012 2-386, looked up)
Ovalbumin: GSIGAASMEFCFDVFKELKVHHANENIFYCPIAIMSALAMVYLGAKDSTRTQINKVVRFDKLPGFGDSIEAQCGTSVNVHSSLRDILNQITKPNDVYSFSLASRLYAEERYPILPEYLQCVKELYRGGLEPINFQTAADQARELINSWVESQTNGIIRNVLQPSSVDSQTAMVLVNAIVFKGLWEKAFKDEDTQAMPFRVTEQESKPVQMMYQIGLFRVASMASEKMKILELPFASGTMSMLVLLPDEVSGLEQLESIINFEKLTEWTSSNVMEERKIKVYLPRMKMEEKYNLTSVLMAMGITDVFSSSANLSGISSAESLKISQAVHAAHAEINEAGREVVGSAEAGVDAASVSEEFRADHPFLFCIKHIATNAVLFFGRCVSP
modifications: FITC label
notes: conjugate of fluorescein isothiocyanate and chicken ovalbumin
Concentration limit (detection limit) ([5]; FITC label, exposure time 4.69 s): about 0.1 μg/ml | Concentration limit (detection limit) ([5]; FITC label, exposure time 252 ms, beads blocked with 1% BSA, 10% (v/v) glycerol, overnight): 10 µg/mL | Concentration limit (detection limit) ([5]; FITC label, exposure time 252 ms, beads blocked with 1% BSA, 10% (v/v) glycerol, overnight, listed as FITC-Ovalbumin): about 10 μg/ml

B3: CR-Oval: ovalbumin labeled with carboxyrhodamine (conjugate, UniProt P01012 2-386, looked up)
Ovalbumin: GSIGAASMEFCFDVFKELKVHHANENIFYCPIAIMSALAMVYLGAKDSTRTQINKVVRFDKLPGFGDSIEAQCGTSVNVHSSLRDILNQITKPNDVYSFSLASRLYAEERYPILPEYLQCVKELYRGGLEPINFQTAADQARELINSWVESQTNGIIRNVLQPSSVDSQTAMVLVNAIVFKGLWEKAFKDEDTQAMPFRVTEQESKPVQMMYQIGLFRVASMASEKMKILELPFASGTMSMLVLLPDEVSGLEQLESIINFEKLTEWTSSNVMEERKIKVYLPRMKMEEKYNLTSVLMAMGITDVFSSSANLSGISSAESLKISQAVHAAHAEINEAGREVVGSAEAGVDAASVSEEFRADHPFLFCIKHIATNAVLFFGRCVSP
modifications: carboxyrhodamine label
notes: ovalbumin labeled with carboxyrhodamine
Concentration limit (detection limit) ([5]; CR label, exposure time 62.4 ms, beads blocked with 1% BSA, 10% (v/v) glycerol, overnight): 1 µg/mL
